Experimental data: patent US20220056091A1 (BRIGHT PEAK THERAPEUTICS, published 2022)

Assays:
Experiment in all cases: cell-based or functional assay
[1] = target: T1, Modified IL-18 polypeptide of SEQ ID NO: 15 (C38S, C68S, C76S, C127S) (human, UniProt Q14116 37-193)
T1 chain: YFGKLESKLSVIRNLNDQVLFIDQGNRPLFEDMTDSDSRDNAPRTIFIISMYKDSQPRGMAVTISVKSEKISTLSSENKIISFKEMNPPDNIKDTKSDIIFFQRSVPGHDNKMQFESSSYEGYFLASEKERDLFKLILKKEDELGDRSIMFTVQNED

[2] = target: T2, Modified IL-18 polypeptide of SEQ ID NO: 16 (C38S, C68S, C76S, C127S, K70C) (human, UniProt Q14116 37-193)
T2 chain: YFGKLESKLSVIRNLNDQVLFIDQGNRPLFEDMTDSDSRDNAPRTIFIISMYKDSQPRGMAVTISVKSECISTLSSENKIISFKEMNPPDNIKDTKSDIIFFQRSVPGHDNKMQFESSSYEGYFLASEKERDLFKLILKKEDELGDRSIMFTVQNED

[3] = target: T3, Modified IL-18 polypeptide of SEQ ID NO: 71 with a 30 kDa PEG attached at residue C68 (E6K, C38S, K53A, … (human, UniProt Q14116 37-193, 30 kDa PEG on Cys 68 (30 kDa DBCO-polyethylene glycol clicked to a bromoacetamido-PEG5-azide linker on the cysteine)))
T3 chain: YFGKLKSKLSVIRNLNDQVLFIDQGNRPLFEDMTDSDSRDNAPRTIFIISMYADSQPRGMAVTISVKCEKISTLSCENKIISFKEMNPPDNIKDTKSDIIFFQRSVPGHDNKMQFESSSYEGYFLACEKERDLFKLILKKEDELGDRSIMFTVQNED

[4] = target: Modified IL-18 polypeptide of SEQ ID NO: 6 (E06K) (human, UniProt Q14116 37-193)
[5] = target: Modified IL-18 polypeptide of SEQ ID NO: 9 (K53A, S55A) (human, UniProt Q14116 37-193)
[6] = target: T4, IL-18 polypeptide of SEQ ID NO: 1 (native sequence, human IL-18 37-193) (human, UniProt Q14116 37-193)
T4 sequence: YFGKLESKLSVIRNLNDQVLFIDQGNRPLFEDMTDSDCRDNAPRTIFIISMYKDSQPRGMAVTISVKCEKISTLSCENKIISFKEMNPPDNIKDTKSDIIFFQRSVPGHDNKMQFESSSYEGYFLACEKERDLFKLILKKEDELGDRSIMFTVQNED

B1: Fc fused human IL-18BP isoform a (IL-18BPa) (Fc fusion, UniProt O95998 31-194, looked up, not shown: a dimerising Fc or GST)
chain: TPVSQTTTAATASVRSTKDPCPSQPPVFPAAKQCPALEVTWPEVEVPLNGTLSLSCVACSRFPNFSILYWLGNGSFIEHLPGRLWEGSTSRERGSTGTQLCKALVLEQLTPALHSTNFSCVLVDPEQVVQRHVVLAQLWAGLRATLPPTQEALPSSHSSPQQQG
- IC50 (nM), IL-18BPa inhibition of IFNγ release by NK-92 cells (1 nM IL-18 analyte) [1]: 0.444 nM
- IC50 (nM), IL-18BPa inhibition of IFNγ release by NK-92 cells (1 nM IL-18 analyte) [2]: 0.114 nM
- IC50 (nM), IL-18BPa inhibition of IFNγ release by NK-92 cells (1 nM IL-18 analyte) [3]: 0.66 nM
- IC50 (nM), IL-18BPa inhibition of IFNγ release by NK-92 cells (1 nM IL-18 analyte) [4]: 7.79 nM
- IC50 (nM), IL-18BPa inhibition of IFNγ release by NK-92 cells (1 nM IL-18 analyte) [5]: 37.3 nM
- IC50 (read off the curve); IFNγ production by NK-92 cells stimulated with IL-18 WT [6]: ~1 nM
